Laboratory results from patent US20020086390.

Legend:
[1] = target: GST-Cdc42Hs preloaded with GTPγS, P60953
[2] = target: GST-RhoA preloaded with GTPγS, P61586
[3] = target: GST-Cdc42Hs preloaded with GDP, P60953
[4] = target: GST-Rac1 preloaded with GTPγS, P63000

Chain of GST-Cdc42Hs preloaded with GDP, P60953 (P60953 whole entry, looked up): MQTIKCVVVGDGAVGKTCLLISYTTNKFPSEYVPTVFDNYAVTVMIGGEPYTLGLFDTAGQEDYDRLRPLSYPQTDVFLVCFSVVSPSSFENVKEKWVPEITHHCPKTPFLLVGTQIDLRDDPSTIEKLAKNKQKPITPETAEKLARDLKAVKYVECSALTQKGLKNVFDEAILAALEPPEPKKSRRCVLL
Chain of GST-Cdc42Hs preloaded with GTPγS, P60953 (P60953 whole entry, looked up): as above
Chain of GST-RhoA preloaded with GTPγS, P61586 (P61586 whole entry): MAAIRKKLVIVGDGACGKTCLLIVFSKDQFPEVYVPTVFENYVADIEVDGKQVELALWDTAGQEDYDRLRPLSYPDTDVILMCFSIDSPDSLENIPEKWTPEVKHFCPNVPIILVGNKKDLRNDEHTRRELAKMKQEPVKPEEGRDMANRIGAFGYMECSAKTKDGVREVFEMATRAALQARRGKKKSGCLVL

B1: inactive PAK I holoenzyme (p60) purified from rabbit reticulocytes (protein)
chain: SDNGELEDKPPAPPVRMSSTIFSTGGKDPLSANHSLKPLPSVPEEKKPRNKIISIFSGTEKGSKKKEKERPEISPPSDFEHTIHVGFDAVTGEFTGMPEQWARLLQTSNITKLEQKKNPQAVLDVLKFYDSNTVKQKYLSFTPPEKDGFPSGAPALNTKVSETSAVVTEEDDDDEEAAPPVIAPRPDHTKSIYTRSVIDPIPAPVGDSHVDSGAKSSDKQKKKTKMTDEEIMEKLRTIVSIGDPKKKYTRYEKIGQGASGTVFTATDVALGQEVAIKQINLQKQPKKELIINEILVMKELKNPNIVNFLDSYLVGDELFVVMEYLAGGSLTDVVTETCMDEAQIAAVCRECLQALEFLHANQVIHRDIKSDNVLLGMEGSVKLTDFGFCAQITPEQSKRSTMVGTPYWMAPEVVTRKAYGPKVDIWSLGIMAIEMVEGEPPYLNENPLRALYLIATNGTPELQNPEKLSPIFRDFLNRCLEMDVEKRGSAKELLQHPFLKLAKPLSSLTPLIMAAKEAMKSNR
For B1, the “autophosphorylation of PAK I (autoradiography, time course)” value [1] was “Stimulation of autophosphorylation upon addition of GST-Cdc42Hs was observed within 5 min”, the “increased autophosphorylation of PAK I” value [1] was 0.97 mol/mol and the “stimulation of the rate of phosphorylation of H4” value [1] was 18,261 pmol/min/mg. For the same protein, the “autophosphorylation and activity (phosphorylation of H4)” value [2] was “had no stimulatory effect on either autophosphorylation or activity”, the “autophosphorylation of PAK I (autoradiography, time course)” value [2] was “GST-RhoA had little effect” and the “activity (phosphorylation of H4)” value [3] was 2,154 pmol/min/mg. The “autophosphorylation and H4 activity relative to Cdc42Hs(GTPγS)” value [3] was “approximately 8-fold lower than those observed with Cdc42Hs(GTPγS)”, the stimulation of autophosphorylation [3] was 0.12 mol/mol and the “autophosphorylation of PAK I (autoradiography, time course)” value [4] was “a slight stimulation of autophosphorylation over the basal level was observed over a 15-min period of incubation”.
